Measured values published in patent US20260184814A1, “BROADLY NE[…] INFLUENZA NEURAMINIDASE” (priority 2022, published 2026).
“And” between values parts separate entries of the source, which are not always exact repeats. Equal entries are not always repeated. Where two headings read alike, the source gives them in different places.

Legend:
[1] = target: human FcγRIIIa (F158 allele) (human) (UniProt P08637)
[2] = target: human FcγRIIIa (V158 allele) (human) (UniProt P08637)
[3] = target: human FcγRIIa (H131 allele) (human) (UniProt P12318)
human FcγRIIb (human) [4] = target: human FcγRIIb (human) (UniProt P31994)
[5] = target: human FcγRIIIa (F158 allele) (human) (UniProt P08637); assay: MSD
[6] = target: human FcγRIIIa (V158 allele) (human) (UniProt P08637); assay: MSD
human FcγRIIIb (human) [7] = target: human FcγRIIIb (human) (UniProt O75015); assay: MSD
[8] = target: human FcγRIIa (H131 allele) (human) (UniProt P12318); assay: MSD
[9] = target: human FcγRIIa (R131 allele) (human) (UniProt P12318); assay: MSD
human FcγRIIb (human) [10] = target: human FcγRIIb (human) (UniProt P31994); assay: MSD
human C1q (human) [11] = target: human C1q (human) (UniProt P02745); assay: MSD [cont'd]
human C1q (human) [12] = target: human C1q (human) (UniProt P02745); assay: MSD [cont'd]; remark: listed apart in the source
human FcRn (human) [13] = target: human FcRn (human) (UniProt P55899); assay: MSD [cont'd]
[14] = target: human FcγRIIIa (F158 allele) (human) (UniProt P08637); assay: MSD [cont'd]
human FcRn (human) [15] = target: human FcRn (human) (UniProt P55899); assay: MSD, pH 6 [cont'd]
human FcγRIIb (human) [16] = target: human FcγRIIb (human) (UniProt P31994); assay: MSD electrochemiluminescence binding assay; column IIB
human FcRn (human) [17] = target: human FcRn (human) (UniProt P55899); assay: MSD electrochemiluminescence binding assay; column FcRn
human FcγRIIIb (human) [18] = target: human FcγRIIIb (human) (UniProt O75015); assay: MSD electrochemiluminescence binding assay; column IIIB
[19] = target: human FcγRIIa (H131 allele) (human) (UniProt P12318); assay: MSD electrochemiluminescence binding assay; column IIA_H
[20] = target: human FcγRIIa (R131 allele) (human) (UniProt P12318); assay: MSD electrochemiluminescence binding assay; column IIA_R
[21] = target: human FcγRIIIa (F158 allele) (human) (UniProt P08637); assay: MSD electrochemiluminescence binding assay; column IIIA_F
[22] = target: human FcγRIIIa (V158 allele) (human) (UniProt P08637); assay: MSD electrochemiluminescence binding assay; column IIIA_V
[23] = target: human FcγRIIIa (F158 allele) (human) (UniProt P08637); remark: listed apart in the source
[24] = target: human FcγRIIIa (V158 allele) (human) (UniProt P08637); remark: listed apart in the source
[25] = target: human FcγRIIIa (V158 allele) (human) (UniProt P08637); assay: MSD [cont'd]
human FcγRIIIb (human) [26] = target: human FcγRIIIb (human) (UniProt O75015); assay: MSD [cont'd]
[27] = target: human FcγRIIa (H131 allele) (human) (UniProt P12318); assay: MSD [cont'd]
[28] = target: human FcγRIIa (R131 allele) (human) (UniProt P12318); assay: MSD [cont'd]
human FcγRIIb (human) [29] = target: human FcγRIIb (human) (UniProt P31994); assay: MSD [cont'd]
human C1q (human) [30] = target: human C1q (human) (UniProt P02745); assay: MSD
human FcRn (human) [31] = target: human FcRn (human) (UniProt P55899); assay: MSD

human FcγRIIb (human), sequence (P31994 43-217 limits assumed): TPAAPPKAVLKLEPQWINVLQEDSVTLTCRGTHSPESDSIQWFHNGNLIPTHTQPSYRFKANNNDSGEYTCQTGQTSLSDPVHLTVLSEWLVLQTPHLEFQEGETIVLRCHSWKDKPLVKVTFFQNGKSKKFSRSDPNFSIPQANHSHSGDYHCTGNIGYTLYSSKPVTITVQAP
human FcγRIIa (H131 allele) (human), sequence (P12318 34-218 limits assumed): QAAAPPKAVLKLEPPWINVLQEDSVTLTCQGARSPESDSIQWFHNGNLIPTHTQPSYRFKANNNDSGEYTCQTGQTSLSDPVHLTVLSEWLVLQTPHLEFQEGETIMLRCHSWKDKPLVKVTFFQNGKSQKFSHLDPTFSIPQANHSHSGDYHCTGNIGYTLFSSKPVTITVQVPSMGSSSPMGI
human FcγRIIIa (V158 allele) (human), sequence (P08637 17-208 F176V limits assumed): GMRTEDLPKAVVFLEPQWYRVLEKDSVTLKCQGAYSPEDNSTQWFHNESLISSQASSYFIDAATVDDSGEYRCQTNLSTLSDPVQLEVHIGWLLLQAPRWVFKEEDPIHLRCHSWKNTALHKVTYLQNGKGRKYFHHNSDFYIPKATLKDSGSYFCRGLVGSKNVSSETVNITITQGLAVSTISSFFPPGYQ
human FcγRIIIa (F158 allele) (human), sequence (P08637 17-208 limits assumed): as the sequence (P08637 17-208 F176V limits assumed) above, with V160F counted along it
human FcRn (human), sequence (P55899 24-297 limits assumed, chain 1 of 2): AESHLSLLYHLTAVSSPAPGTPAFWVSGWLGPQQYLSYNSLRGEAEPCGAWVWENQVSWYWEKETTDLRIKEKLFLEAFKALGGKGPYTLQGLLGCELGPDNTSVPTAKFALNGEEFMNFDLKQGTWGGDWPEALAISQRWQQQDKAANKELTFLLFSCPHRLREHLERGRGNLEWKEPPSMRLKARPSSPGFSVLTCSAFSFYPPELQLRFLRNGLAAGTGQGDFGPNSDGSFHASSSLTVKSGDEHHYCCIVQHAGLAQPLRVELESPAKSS
human FcRn (human), sequence (chain, as listed by the source limits assumed, chain 2 of 2): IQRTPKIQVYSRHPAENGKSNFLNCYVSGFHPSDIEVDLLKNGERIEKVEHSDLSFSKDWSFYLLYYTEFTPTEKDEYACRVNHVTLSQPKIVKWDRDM
human C1q (human), sequence (P02745 23-245 limits assumed, chain 1 of 3): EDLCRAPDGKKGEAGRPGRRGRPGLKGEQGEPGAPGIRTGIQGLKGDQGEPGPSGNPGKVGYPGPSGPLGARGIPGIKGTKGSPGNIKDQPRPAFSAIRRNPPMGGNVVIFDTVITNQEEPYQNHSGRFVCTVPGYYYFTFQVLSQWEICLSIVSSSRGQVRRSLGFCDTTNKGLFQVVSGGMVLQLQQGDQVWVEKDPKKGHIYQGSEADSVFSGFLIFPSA
human C1q (human), sequence (P02746 28-253 limits assumed, chain 2 of 3, further chain): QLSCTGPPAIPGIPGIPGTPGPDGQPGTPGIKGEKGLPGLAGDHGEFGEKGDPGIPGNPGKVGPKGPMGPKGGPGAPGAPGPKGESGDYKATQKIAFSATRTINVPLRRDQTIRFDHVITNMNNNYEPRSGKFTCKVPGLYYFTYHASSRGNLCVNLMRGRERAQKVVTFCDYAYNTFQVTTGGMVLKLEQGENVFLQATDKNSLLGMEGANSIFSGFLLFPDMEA
human C1q (human), sequence (P02747 29-245 limits assumed, chain 3 of 3, further chain): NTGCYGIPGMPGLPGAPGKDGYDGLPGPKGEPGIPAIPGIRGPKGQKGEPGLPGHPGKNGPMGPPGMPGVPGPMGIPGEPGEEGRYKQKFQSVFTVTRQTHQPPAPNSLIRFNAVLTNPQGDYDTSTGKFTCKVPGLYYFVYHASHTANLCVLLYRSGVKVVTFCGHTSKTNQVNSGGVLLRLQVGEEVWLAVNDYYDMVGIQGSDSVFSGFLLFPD
human FcγRIIa (R131 allele) (human), sequence (P12318 34-218 H167R limits assumed): as the sequence (P12318 34-218 limits assumed) above, with H134R counted along it
human FcγRIIIb (human), sequence (O75015 17-200 limits assumed): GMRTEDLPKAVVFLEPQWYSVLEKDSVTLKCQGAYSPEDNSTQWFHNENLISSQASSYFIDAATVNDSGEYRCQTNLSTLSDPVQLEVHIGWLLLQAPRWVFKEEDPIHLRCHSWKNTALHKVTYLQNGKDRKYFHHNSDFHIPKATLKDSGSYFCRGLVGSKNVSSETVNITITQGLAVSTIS

“IgG1 antibody with Fc variant G236S_R292P_Y300L” showed a FcγR reporter signaling, fold-change vs wt [cont'd] [1] of 1.52 fold, a FcγR reporter signaling, fold-change vs wt [cont'd] [2] of 1.32 fold and a FcγR reporter signaling, fold-change vs wt [cont'd] [3] of 2.24 fold. For the same substance, the FcγR reporter signaling, fold-change vs wt [cont'd] (human FcγRIIb (human) [4]) was 0.93 fold, the fold-change vs wt [5] was 1.06 fold and the fold-change to WT Fc [6] was 0.753 fold. It also gave a fold-change vs wt [6] of 0.75 fold, a fold-change vs wt (human FcγRIIIb (human) [7]) of 1.04 fold and a fold-change to WT Fc [8] of 10.9 fold. It also gave a fold-change vs wt [8] of 10.8 fold, a fold-change to WT Fc [9] of 1.34 fold and a fold-change vs wt [9] of 1.34 fold. The fold-change to WT Fc (human FcγRIIb (human) [10]) was 0.817 fold, the fold-change vs wt (human FcγRIIb (human) [10]) was 0.82 fold and the fold-change vs wt (human C1q (human) [11]) was 1.96 fold. For the same substance, the fold-change to WT Fc (human C1q (human) [12]) was 1.98 fold, the fold-change vs wt (human C1q (human) [12]) was 1.98 fold and the fold-change vs wt (human FcRn (human) [13]) was 0.87 fold. The fold-change to WT Fc [14] was 1.06 fold and the fold-change to WT Fc (human FcRn (human) [15]) was 0.87 fold.

“IgG1 antibody with Fc variant G236A_K334A_Q295E” showed a FcγR reporter signaling, fold-change vs wt [cont'd] [1] of 0.23 fold, a FcγR reporter signaling, fold-change vs wt [cont'd] [2] of 0.36 fold and a FcγR reporter signaling, fold-change vs wt [cont'd] [3] of 2.13 fold. For the same substance, the FcγR reporter signaling, fold-change vs wt [cont'd] (human FcγRIIb (human) [4]) was 0.8 fold, the fold-change vs wt [5] was 0.74 fold and the fold-change vs wt [6] was 0.27 fold. For the same substance, the fold-change vs wt (human FcγRIIIb (human) [7]) was 0.72 fold, the fold-change vs wt [8] was 4.96 fold and the fold-change vs wt [9] was 2.92 fold. It also gave a fold-change vs wt (human FcγRIIb (human) [10]) of 0.67 fold, a fold-change vs wt (human C1q (human) [12]) of 0.9 fold and a fold-change vs wt (human FcRn (human) [13]) of 1.02 fold. It also gave a fold-change in binding vs wild-type IgG1 (human FcγRIIb (human) [16]) of 0.4, a fold-change in binding vs wild-type IgG1 (human FcRn (human) [17]) of 1.02 and a fold-change in binding vs wild-type IgG1 (human FcγRIIIb (human) [18]) of 0.72. The fold-change in binding vs wild-type IgG1 [19] was 5.01, the fold-change in binding vs wild-type IgG1 [20] was 2.88 and the fold-change in binding vs wild-type IgG1 [21] was 0.74. It also gave a fold-change in binding vs wild-type IgG1 [22] of 0.27.

G236S_R292P_Y300L-afuc (antibody) gave a FcγR reporter signaling, fold to wt-fucose [cont'd] [23] of 6.54 fold, a FcγR reporter signaling, fold to wt-fucose [cont'd] [24] of 2.87 fold and a fold to wt-fucose (human FcRn (human) [13]) of 0.8 fold. It also gave a fold to wt-fucose [14] of 5.47 fold, a fold to wt-fucose [25] of 3.17 fold and a fold to wt-fucose (human FcγRIIIb (human) [26]) of 1.04 fold. The fold to wt-fucose [27] was 8.13 fold, the fold to wt-fucose [28] was 1.5 fold and the fold to wt-fucose (human FcγRIIb (human) [29]) was 0.72 fold.

With “IgG1 antibody with Fc variant G236A_P230A_Q295E” the FcγR reporter signaling, fold-change vs wt [cont'd] [1] was 0.02 fold, the FcγR reporter signaling, fold-change vs wt [cont'd] [2] was 0.06 fold and the FcγR reporter signaling, fold-change vs wt [cont'd] [3] was 2.29 fold. For the same substance, the FcγR reporter signaling, fold-change vs wt [cont'd] (human FcγRIIb (human) [4]) was 0.56 fold, the fold-change vs wt [5] was 0.48 fold and the fold-change vs wt [6] was 0.31 fold. The fold-change vs wt (human FcγRIIIb (human) [7]) was 0.72 fold, the fold-change vs wt [8] was 7.67 fold and the fold-change vs wt [9] was 4.57 fold. The fold-change vs wt (human FcγRIIb (human) [10]) was 0.54 fold, the fold-change vs wt (human C1q (human) [12]) was 0.3 fold and the fold-change vs wt (human FcRn (human) [13]) was 0.93 fold. It also gave a fold-change in binding vs wild-type IgG1 (human FcγRIIb (human) [16]) of 0.48, a fold-change in binding vs wild-type IgG1 (human FcRn (human) [17]) of 0.93 and a fold-change in binding vs wild-type IgG1 (human FcγRIIIb (human) [18]) of 0.72. It also gave a fold-change in binding vs wild-type IgG1 [19] of 7.59, a fold-change in binding vs wild-type IgG1 [20] of 4.57 and a fold-change in binding vs wild-type IgG1 [21] of 0.48. It also gave a fold-change in binding vs wild-type IgG1 [22] of 0.31.

In the case of G236A (antibody), the fold-change vs FY1 rIgG1m3 (human C1q (human) [30]) is reported as 0.59 fold and 0.36 fold, the fold-change vs FY1 rIgG1m3 [5] is reported as 0.6 fold and 0.8 fold and the fold-change vs FY1 rIgG1m3 [6] is reported as 0.4 fold and 0.6 fold. The fold-change vs FY1 rIgG1m3 (human FcγRIIIb (human) [7]) was 0.82 fold, the fold-change vs FY1 rIgG1m3 [8] was 5.9 fold and 12.1 fold and the fold-change vs FY1 rIgG1m3 [9] was 4.8 fold and 6.3 fold. For the same substance, the fold-change vs FY1 rIgG1m3 (human FcγRIIb (human) [10]) was 0.6 fold and 1.1 fold.

With GA (Fc-LS) (antibody) the fold-change vs FY1 rIgG1m3-MLNS (human C1q (human) [30]) was 0.35 fold, the fold-change vs FY1 rIgG1m3-MLNS (human FcRn (human) [31]) was 0.95 fold and the fold-change vs FY1 rIgG1m3-MLNS [5] was 0.93 fold. The fold-change vs FY1 rIgG1m3-MLNS [6] was 0.52 fold, the fold-change vs FY1 rIgG1m3-MLNS (human FcγRIIIb (human) [7]) was 0.84 fold and the fold-change vs FY1 rIgG1m3-MLNS [8] was 10 fold. For the same substance, the fold-change vs FY1 rIgG1m3-MLNS [9] was 6.9 fold and the fold-change vs FY1 rIgG1m3-MLNS (human FcγRIIb (human) [10]) was 1.1 fold.

GRLR (Fc-LS) (antibody) gave a fold-change vs FY1 rIgG1m3-MLNS (human FcRn (human) [31]) of 0.69 fold, a fold-change vs FY1 rIgG1m3-MLNS [5] of 0.25 fold and a fold-change vs FY1 rIgG1m3-MLNS [6] of 0.08 fold. The fold-change vs FY1 rIgG1m3-MLNS (human FcγRIIIb (human) [7]) was 0.7 fold, the fold-change vs FY1 rIgG1m3-MLNS [8] was 0.28 fold and the fold-change vs FY1 rIgG1m3-MLNS [9] was 0.38 fold. The fold-change vs FY1 rIgG1m3-MLNS (human FcγRIIb (human) [10]) was 0.38 fold.
